B1: DnaA initiator-associating protein DiaA (Escherichia coli (strain K12)), P66817 (parent)
chain: MQERIKACFTESIQTQIAAAEALPDAISRAAMTLVQSLLNGNKILCCGNGTSAANAQHFAASMINRFETERPSLPAIALNTDNVVLTAIANDRLHDEVYAKQVRALGHAGDVLLAISTRGNSRDIVKAVEAAVTRDMTIVALTGYDGGELAGLLGPQDVEIRIPSHRSARIQEMHMLTVNCLCDLIDNTLFPHQDD
partner: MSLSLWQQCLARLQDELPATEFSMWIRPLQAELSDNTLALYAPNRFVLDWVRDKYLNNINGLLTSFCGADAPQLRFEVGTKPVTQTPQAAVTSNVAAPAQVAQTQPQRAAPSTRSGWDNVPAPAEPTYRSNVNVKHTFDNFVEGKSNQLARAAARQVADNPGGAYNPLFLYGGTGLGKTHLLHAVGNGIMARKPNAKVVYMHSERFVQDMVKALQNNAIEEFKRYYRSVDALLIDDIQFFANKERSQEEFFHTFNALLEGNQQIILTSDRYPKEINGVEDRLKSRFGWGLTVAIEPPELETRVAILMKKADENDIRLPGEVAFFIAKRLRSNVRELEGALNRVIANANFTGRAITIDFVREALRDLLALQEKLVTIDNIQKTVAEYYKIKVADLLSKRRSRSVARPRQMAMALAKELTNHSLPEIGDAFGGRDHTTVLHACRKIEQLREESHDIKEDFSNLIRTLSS

Variants of: B1
Details: with dnaa_ecoli dnaA

| effect of a mutation on the interaction | Variant |
| --- | --- |
| disrupting interaction | MQERIKACFTESIQTQIAAAEALPDAISRAAMTLVQSLLNGNKILCCGNGTSAANAQHFAASMINRFETERPSLPAIALNTDNVVLTAIANDRLHDEVYAKQVRALGHAGDVLLAISTRGNSRDIVKAVEAAVTRDMTIVALTGYDGGELAGLLGPQDVEIRIPSHRSARIQEMHMLTVNCLCDLIDNTLLPHQDD |
| disrupting interaction | MQERIKACFTESIQTQIAAAEALPDAISRAAMTLVQSLLNGNKILCCGNGTSAANAQHFAASMINRFETERPSLPAIALNTDNVVLTAIANDRLHDEVYAKQVRALGHAGDVLLAISTRGNSRDIVKAVEAAVTRDMTIVALTGYDGGELAGLLGPQDVEIRIPSHRSARIQEMHMLTVNCLCDLIDNTLSPHQDD |
| decreasing interaction | MQERIKACFTESIQTQIAAAEALPDAISRAAMTLVQSLLNGNKILCCGNGTSAANAQHFAASMINRFETERPSLPAIALNTDNVVLTAIANDRLHDEVYAEQVRALGHAGDVLLAISTRGNSRDIVKAVEAAVTRDMTIVALTGYDGGELAGLLGPQDVEIRIPSHRSARIQEMHMLTVNCLCDLIDNTLFPHQDD |
| decreasing interaction | MQERIKACFTESIQTQIAAAEALPDAISRAAMTLVQSLLNGNKILCCGNGTSAANAQHFAASMINRFETERSSLPAIALNTDNVVLTAIANDRLHDEVYAKQVRALGHAGDVLLAISTRGNSRDIVKAVEAAVTRDMTIVALTGYDGGELAGLLGPQDVEIRIPSHRSARIQEMHMLTVNCLCDLIDNTLFPHQDD |
| decreasing interaction | MQERIKACFTESIQTQIAAAEALPDAISRAAMTLVQSLLNGNKILCCGNGTSAANAQHFAASMINRFETERASLPAIALNTDNVVLTAIANDRLHDEVYAKQVRALGHAGDVLLAISTRGNSRDIVKAVEAAVTRDMTIVALTGYDGGELAGLLGPQDVEIRIPSHRSARIQEMHMLTVNCLCDLIDNTLFPHQDD |
| decreasing interaction | MQERIKACFTESIQTQIAAAEALPDAISRAAMTLVQSLLNGNKILCCGNGTSAANAQHFAASMINRFETERPSLPAIALNTDDVVLTAIANDRLHDEVYAKQVRALGHAGDVLLAISTRGNSRDIVKAVEAAVTRDMTIVALTGYDGGELAGLLGPQDVEIRIPSHRSARIQEMHMLTVNCLCDLIDNTLFPHQDD |
| disrupting interaction | MQERIKACFTESIQTQIAAAEALPDAISRAAMTLVQSLLNGNKILCCGNGTSAANAQHFAASMINRFETERPSLPAIALNTDNVVLTAIANDRLHDEVYAKQVRALGHAGDVLLAISTRGNSRDIVKAVEAAVTRDMTIVALTGYDGGELAGLLGPQDVEIRIPSHRSARIQEMHMLTVNCLCDLIDNTPFPHQDD |
| disrupting interaction | MQERIKACFTESIQTQIAAAEALPDAISRAAMTLVQSLLNGNKILCCGNGTSAANAQHFAASMINRFETERPSLPAIALNTDNVVLTAIANDRLHDEVYAKQVRALGHAGDVLLAISTRGNSRDIVKAVEAAVTRDMTIVALTGYDGGELAGLLGPQDVEIRIPSHRSARIQEMHMLTVNCLCDLIDNTAFPHQDD |

Variants of: B1
Details: with dnaa_ecoli dnaA
Remark: another data set of the same source

| effect of a mutation on the interaction | Variant |
| --- | --- |
| decreasing interaction | MQERIKACFTESIQTQIAAAEALPDAISRAAMTLVQSLLNGNKILCCGNGTFAANAQHFAASMINRFETERPSLPAIALNTDNVVLTAIANDRLHDEVYAKQVRALGHAGDVLLAISTRGNSRDIVKAVEAAVTRDMTIVALTGYDGGELAGLLGPQDVEIRIPSHRSARIQEMHMLTVNCLCDLIDNTLFPHQDD |

From IntAct's records for PubMed 17699754
